In assay [1] the target is ectodomain of glycoprotein B (ect-gB), Epstein-Barr virus (Epstein-Barr virus). The experiment in a line: native gel or EMSA.
In assay [2] the target is T1, ectodomain of glycoprotein B (ect-gB), Epstein-Barr virus (Epstein-Barr virus (HHV-4), strain M81 …).
T1 chain 1: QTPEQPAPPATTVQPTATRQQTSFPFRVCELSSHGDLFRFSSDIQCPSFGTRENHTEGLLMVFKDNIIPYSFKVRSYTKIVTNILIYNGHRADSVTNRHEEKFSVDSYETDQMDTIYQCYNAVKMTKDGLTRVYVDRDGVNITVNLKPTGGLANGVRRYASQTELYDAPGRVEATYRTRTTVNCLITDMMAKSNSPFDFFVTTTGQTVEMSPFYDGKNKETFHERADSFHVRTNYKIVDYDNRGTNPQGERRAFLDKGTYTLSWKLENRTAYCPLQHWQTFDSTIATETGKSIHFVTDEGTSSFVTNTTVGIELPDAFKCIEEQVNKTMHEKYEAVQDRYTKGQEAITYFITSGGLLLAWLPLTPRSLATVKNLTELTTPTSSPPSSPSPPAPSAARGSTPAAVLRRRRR
T1 chain 2: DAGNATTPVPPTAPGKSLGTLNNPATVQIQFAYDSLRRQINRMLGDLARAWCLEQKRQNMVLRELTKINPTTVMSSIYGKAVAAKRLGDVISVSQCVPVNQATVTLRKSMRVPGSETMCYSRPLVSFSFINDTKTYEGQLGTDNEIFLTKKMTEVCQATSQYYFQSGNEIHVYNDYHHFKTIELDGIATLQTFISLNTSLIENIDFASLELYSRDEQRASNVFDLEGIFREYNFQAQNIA

Assay [3] addresses virion-encoded gB expressed on EBV-positive Akata cells (Epstein-Barr virus (HHV-4), strain …, UniProt P03188, strain). The experiment in a line: cell-based or functional assay.
The target in assay [4] is T1, ectodomain of glycoprotein B (ect-gB), …. In words: SPR.

Data on six molecules can be found in PMC9371650 (Proceedings of the National Academy of Sciences of the …, 2022).

“ectodomain of glycoprotein B (ect-gB), Epstein-Barr virus (domain or fragment)” returned a stoichiometry N in assay [1] of 3.

B1: 1E12 (antibody, V domains shown)
VH: QSVKESGGRLVTPGTPLTLTCTVSGIDLSTYVMTWVRQAPGKGLECIGIIGYGGSTYYASWATGRFTISKTSTTVDLRMTSLTTEDTATYFCARGVSSNLYRGMNLWGQGTLVTVSS
VL: ALVMTQTPSPVSAAVGGTVSISCQSSPSVYSNYLSWYQQKPGQPPKLLIYETSKLESGVPSRFSGSGSGTQFTLTISGVQCDDAATYYCAGGYSGISDTFAFGGGTKVDIK
As for B1, the binding result in assay [2] is “binds”.

B2: 3A3, rabbit anti-EBV gB neutralizing monoclonal antibody (antibody, V domains shown)
VH: QSVKESGGRLVTPGTPLTLTCTVSGFSLSSYAMSWVRQAPGKGLEYIGVIYASGSTYYASWAKGRFTISRTATTVDLKITSPTTEDTATYFCGRGVSTNMWGPGTLVTVSS
VL: DLVMTQTPSSVSAAVGGTVTIKCQASQSLGGGLAWYQQKPGQRPKLLIYSASTLESGVPSRFRGSGSGTEFTLTISDLECADAATYYCQSAYGPTSNGLFNAFGGGTKVVIK
As to B2, in assay [3], the “IC50 of neutralization of Akata-EBV infection of HNE1 epithelial cells” value is 0.08 µg/mL and the “IC50 of neutralization of CNE2-EBV infection of Akata B cells” value was found to be 2.97 µg/mL.

B3: antigen binding fragment of 3A3 (3A3Fab) (Fab, V domains shown)
VH: B2 VH
VL: B2 VL
On to B3, for which the dissociation constant Kd in assay [4] is approximately 3.49 nM.

B4: 3A5, rabbit anti-EBV gB neutralizing monoclonal antibody (antibody, V domains shown)
VH: QSVKESGGRLVTPGTPLTLTCTVSGFSLSSYEMGWVRQAPGEGLEWIGTISTGGSSYYASWAKGRFTISRTSTTVDLKMTSLTTADTATYFCARGYGGYGIGAGYFNIWGPGTLVTVSS
VL: ALVMTQTPSSVSEPVGGTVTIKCQASQSISSYLAWYQRKPGQRPKLLIYGTSTLASGVPSRFIGSGSGTDYTLTISDLECDDAATYYCQQGFSTSNVYNSFGGGTKVDIK
For the molecule B4, in assay [3], the “IC50 of neutralization of Akata-EBV infection of HNE1 epithelial cells” value was determined as 0.31 µg/mL and the “IC50 of neutralization of CNE2-EBV infection of Akata B cells” value worked out at 4.9 µg/mL.

B5: antigen binding fragment of 3A5 (3A5Fab) (Fab, V domains shown)
VH: B4 VH
VL: B4 VL
B5: the Kd in assay [4] was approximately 3.93 nM.
